The record followed here is paper PMC11199599, “SNM1A is crucial for efficient repair of complex DNA breaks in human cells” (Nature Communications, 2024).

In assay [1] the target is T1, Human PCNA (human, UniProt P12004 1-261).
T1 construct: PCNA (proliferating cell nuclear antigen), human; also called native PCNA; purified PCNA; source: E. coli BL21, purified (IMAC, gel filtration on Superdex 200)
In words: pull-down; GST-SNM1A peptides held on glutathione-agarose beads, washed with PBS with 250 mM to 1 M salt; 150 ng purified PCNA or PCNA^ub added, tumbled at 4 °C for 1 h, washed as before; immunoblot for PCNA, PCNA^ub, GST. To be noted: both partners purified. A general note: In western blotting, separated proteins are transferred to a membrane and probed.

For assay [2], the target named is T2, Lysine 164 monoubiquitinated human PCNA (PCNA^ub) (human | , UniProt P12004 1-261; P0CG48 1-76, monoubiquitinated at lysine 164 | C-terminus joined to lysine 164 of PCNA).
T2 construct: PCNA (proliferating cell nuclear antigen), human, carrying one ubiquitin on lysine 164; ubiquitin, conjugated in vitro to lysine 164 of PCNA; also called ubiquitinated PCNA; lysine-164 monoubiquitinated PCNA
The assay is described as above. Conditions: both partners purified.

T1 sequence (P12004 whole entry): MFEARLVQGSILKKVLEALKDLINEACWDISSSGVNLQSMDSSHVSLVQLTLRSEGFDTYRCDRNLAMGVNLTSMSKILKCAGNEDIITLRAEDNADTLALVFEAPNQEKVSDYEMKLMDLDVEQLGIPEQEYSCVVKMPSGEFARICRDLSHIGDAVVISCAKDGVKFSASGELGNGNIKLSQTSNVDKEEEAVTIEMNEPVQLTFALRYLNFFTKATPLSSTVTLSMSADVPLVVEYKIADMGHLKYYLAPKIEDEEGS

B1: GST-tagged SNM1A PIP box peptide (GST-PIP) (domain or fragment, human)
chain: ARHPSTKVMKQMDIGVYFGLPPKRKEEKLL
notes: SNM1A (DCLRE1A), human, stretch spanning the PIP box; numbering as for NP_001258745.1; Cloned into pET-41b (MfeI/SalI); also called wildtype PIP box peptide; not shown: GST, N-terminal, kept
For B1, the binding result in assay [1] and in assay [2] was “binds” in each case.

B2: GST-tagged SNM1A peptide spanning the PBZ and UBZ motifs (GST-PBZ-UBZ) (domain or fragment, human)
chain: RPVYDGYCPNCQMPFSSLIGQTPRWHVFECLDSPPRSETECPDGLLCTSTIPFHYKRYTHFLLAQSRAG
notes: SNM1A (DCLRE1A), human, stretch spanning the UBZ and PBZ motifs; numbering as for NP_001258745.1; Cloned into pET-41b; also called UBZ/PBZ peptide; PBZ-plus-UBZ; not shown: GST, N-terminal, kept
As for B2, the binding result in assay [2] is “binds”.
